# From IntAct's records for PubMed 24056087
# B1: ADP-ribosylation factor 6 (Homo sapiens), P62330 (parent)
# chain: MGKVLSKIFGNKEMRILMLGLDAAGKTTILYKLKLGQSVTTIPTVGFNVETVTYKNVKFNVWDVGGQDKIRPLWRHYYTGTQGLIFVVDCADRDRIDEARQELHRIINDREMRDAIILIFANKQDLPDAMKPHEIQEKLGLTRIRDRNWYVQPSCATSGDGLYEGLTWLTSNYKS
# partner: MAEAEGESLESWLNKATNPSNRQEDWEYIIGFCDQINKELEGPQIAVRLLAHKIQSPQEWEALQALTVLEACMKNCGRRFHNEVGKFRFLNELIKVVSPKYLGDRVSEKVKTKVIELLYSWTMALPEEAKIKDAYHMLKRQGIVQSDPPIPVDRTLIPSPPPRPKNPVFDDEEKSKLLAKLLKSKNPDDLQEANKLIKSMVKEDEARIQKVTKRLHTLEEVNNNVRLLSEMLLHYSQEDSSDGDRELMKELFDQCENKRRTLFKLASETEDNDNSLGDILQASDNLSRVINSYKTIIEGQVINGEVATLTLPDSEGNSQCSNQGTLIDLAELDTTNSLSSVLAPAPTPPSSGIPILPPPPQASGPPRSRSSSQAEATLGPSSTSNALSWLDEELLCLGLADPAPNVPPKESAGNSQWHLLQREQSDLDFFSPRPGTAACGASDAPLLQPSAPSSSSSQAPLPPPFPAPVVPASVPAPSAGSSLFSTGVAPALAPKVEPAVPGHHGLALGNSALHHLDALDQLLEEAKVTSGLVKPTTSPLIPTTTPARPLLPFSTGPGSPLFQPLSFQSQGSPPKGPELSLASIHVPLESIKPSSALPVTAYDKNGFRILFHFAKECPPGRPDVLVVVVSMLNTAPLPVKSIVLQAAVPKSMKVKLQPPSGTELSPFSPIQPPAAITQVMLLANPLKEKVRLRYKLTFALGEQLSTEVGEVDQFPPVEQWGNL
# B2: ADP-ribosylation factor 6 (Homo sapiens), P62330 (parent)
# chain: B1 chain
# partner: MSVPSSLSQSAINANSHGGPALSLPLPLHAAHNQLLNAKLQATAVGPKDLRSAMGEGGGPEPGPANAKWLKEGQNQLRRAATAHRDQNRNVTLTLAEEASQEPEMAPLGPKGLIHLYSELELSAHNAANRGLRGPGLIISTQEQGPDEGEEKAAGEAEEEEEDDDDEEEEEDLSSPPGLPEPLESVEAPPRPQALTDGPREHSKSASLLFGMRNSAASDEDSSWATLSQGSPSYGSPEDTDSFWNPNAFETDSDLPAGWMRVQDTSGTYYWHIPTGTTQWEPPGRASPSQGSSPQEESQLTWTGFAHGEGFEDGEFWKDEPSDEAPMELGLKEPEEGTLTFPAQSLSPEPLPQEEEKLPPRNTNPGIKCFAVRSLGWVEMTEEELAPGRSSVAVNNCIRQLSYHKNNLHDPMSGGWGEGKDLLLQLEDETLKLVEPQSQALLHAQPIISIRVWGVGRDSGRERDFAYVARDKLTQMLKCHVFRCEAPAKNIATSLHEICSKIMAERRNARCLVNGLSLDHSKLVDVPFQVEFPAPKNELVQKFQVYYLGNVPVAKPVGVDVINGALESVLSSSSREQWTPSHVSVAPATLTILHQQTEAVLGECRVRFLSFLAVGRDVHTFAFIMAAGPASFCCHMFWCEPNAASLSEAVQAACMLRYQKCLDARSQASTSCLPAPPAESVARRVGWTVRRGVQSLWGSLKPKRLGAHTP
# Variants of: B1
# Conditions: with gga3_human GGA3, Q9NZ52
row,effect of a mutation on the interaction,Variant
1,increasing interaction strength,Q67L
2,decreasing interaction strength,T27N

# Variants of: B2
# Conditions: with apbb1_human APBB1, O00213
row,effect of a mutation on the interaction,Variant
1,increasing interaction strength,T27N
2,disrupting interaction strength,Q67L
